Experimental findings from article PMC11076521 are described below.

This assay deals with MYC-tagged FTL wild type, P02792. The assay can be described thus: co-IP; HeLa-FTH1 KO cells; anti-MYC IP of MYC-FTH1/FTL, immunoblot; 50 mM Tris-HCl pH 7.5, 150 mM NaCl, 0.5% Nonidet P40, 1 mM DTT; quantified relative to FTH1-WT, normalized to immunoprecipitated FTH1/FTL and NCOA4 input. Particulars: remark: other sources report otherwise.
MYC-tagged FTL wild type, P02792, sequence (P02792 whole entry): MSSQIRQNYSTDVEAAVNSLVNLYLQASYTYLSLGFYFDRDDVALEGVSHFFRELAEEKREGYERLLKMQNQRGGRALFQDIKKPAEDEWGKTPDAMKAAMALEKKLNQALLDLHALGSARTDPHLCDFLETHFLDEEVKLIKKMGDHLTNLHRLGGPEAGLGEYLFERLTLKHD

B1: C-terminally HA-FLAG-tagged NCOA4, Q13772 1-614 (natural protein)
chain: MNTFQDQSGSSSNREPLLRCSDARRDLELAIGGVLRAEQQIKDNLREVKAQIHSCISRHLECLRSREVWLYEQVDLIYQLKEETLQQQAQQLYSLLGQFNCLTHQLECTQNKDLANQVSVCLERLGSLTLKPEDSTVLLFEADTITLRQTITTFGSLKTIQIPEHLMAHASSANIGPFLEKRGCISMPEQKSASGIVAVPFSEWLLGSKPASGYQAPYIPSTDPQDWLTQKQTLENSQTSSRACNFFNNVGGNLKGLENWLLKSEKSSYQKCNSHSTTSSFSIEMEKVGDQELPDQDEMDLSDWLVTPQESHKLRKPENGSRETSEKFKLLFQSYNVNDWLVKTDSCTNCQGNQPKGVEIENLGNLKCLNDHLEAKKPLSTPSMVTEDWLVQNHQDPCKVEEVCRANEPCTSFAECVCDENCEKEALYKWLLKKEGKDKNGMPVEPKPEPEKHKDSLNMWLCPRKEVIEQTKAPKAMTPSRIADSFQVIKNSPLSEWLIRPPYKEGSPKEVPGTEDRAGKQKFKSPMNTSWCSFNTADWVLPGKKMGNLSQLSSGEDKWLLRKKAQEVLLNSPLQEEHNFPPDHYGLPAVCDLFACMQLKVDKEKWLYRTPLQM
B1 yielded a relative interaction by immunoprecipitation (% of FTH1-WT) of 14%.
